Assay results taken from publication PMC3354533.

Molecular target: endogenous calcineurin A (CaNA) in mouse primary cortical neurons (mouse (endogenous in primary cortical neurons)) (UniProt P63328)
Assay: FRET or BRET

| Substance | 565/522 ratio, spine, AD brain SEC fraction 60 min | FRET Ratio increase, cytoplasm, 6 hours of TgCM | FRET Ratio increase, nucleus, 6 hours of TgCM | peak of the FRET distribution in spines, 15 min of TgCM | peak of the FRET distribution in spines, 30 min of TgCM | peak of the FRET distribution in spines, 60 min of TgCM |
| --- | --- | --- | --- | --- | --- | --- |
| endogenous calcineurin B subunit (CaNB) in mouse primary cortical neurons (from UniProt Q63810 1-170) (natural protein) | 0.451 | 0.51 | 0.49 | 0.45 | 0.48 | 0.48 |
| endogenous calmodulin (CaM) in mouse primary cortical neurons (from UniProt P0DP26 1-149) (natural protein) |  |  |  | 0.38 | 0.39 | 0.4 |
